# Source: the RNAGym collection of RNA variant scans (doi:10.1073/pnas.2313332121)
# This sample holds only a part of the variants without activity.
# B1: TPR 5TU (parent)
# chain: GGAUCUUCUCGAUCUAACAAAAAAGACAAAUCUGCCACAAAGCUUGAGAGCAUCUUCGGAUGCAGAGGCGGCAGCCUUCGGUGGCGCGAUAGCGCCAACGUUCUCAACUAUGACACGCAAAACGCGUGCUCCGUUGAAUGGAGUUUAUCAUG
# Variants of: B1
# Test: polymerase ribozyme fitness, log enrichment relative to wild type (log ratio); higher = more active; in vitro selection for triplet polymerase activity
# Method in brief: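 Mutant libraries for each subunit of a heterodimeric triplet polymerase ribozyme were made by PCR and then transcribed. Each library underwent one round of in vitro selection in triplicate: annealing with a biotinylated primer, the partner subunit and triplets, frozen incubation at −7 °C, gel excision of extended constructs, streptavidin-bead capture and RT-PCR. Input and output libraries were Illumina-sequenced, and only genotypes with ≥10 input reads and ≥1 read per output were kept. Fitness is the logarithm, base 2, of genotype enrichment over wild-type enrichment, computed from inverse-variance-weighted replicate averages.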
row,Variant,polymerase ribozyme fitness (log ratio)
1,G88U,-3.89
2,C5A G59A C76U U77A G84A C118G C132G,≤ -4.2
3,C54G A97C G124A,-0.735
4,C87A G117C U146C,≤ -4.2
5,G34U U55A A91G G94U,≤ -4.2
6,A22C A23G C93G C149U,≤ -4.2
7,A21G G70A,-3.35
8,U4C C85A C95G A115G,-3.75
9,G48C A91U G143C,≤ -4.2
10,C18U C108U,-3.57
11,C54U C69G C85G,-3.9
12,G46A G70U C85G,≤ -4.2
13,G46C U90A,≤ -4.2
14,C96G A122U,-1.49
15,A28U C79A C87G C96G,≤ -4.2
16,G67U C75A G92A G124U,≤ -4.2
17,C35A G59U C69G,-2.14
18,A23C U53A C93U U134G,≤ -4.2
19,C18G C36A C95A C96A,≤ -4.2
20,U44C G86U C103G G140A U148A,≤ -4.2
21,G81A C95U,-1.88
22,A12U A39U U55A G68A C96U U145G,≤ -4.2
23,A17U A29U G74C G124U,≤ -4.2
24,C8U G94A,-3.24

row,Variant,polymerase ribozyme fitness (log ratio)
1,A29C A49G C69G U77G C79U C116U U146A,≤ -4.2
2,C32G G50A U61A G62C G71A A91U G94C A138C,≤ -4.2
3,U6A C10A U31A A49C U53A C76G G81A G92A A106G G117A,≤ -4.2
4,A21C A26C C85U A89C G136A G141A,-4.04
5,U53A A64G,-3.41
6,A41C C51U,-0.722
7,C32G G50U C79G G88U G94C U101C C125A,≤ -4.2
8,A20C U55G G67U C72A C85U,≤ -4.2
9,A40G C118U,-2.18
10,A52C A60C,-2.71
11,A30U A49G,≤ -4.2
12,C76U U144A,-1.08
13,A24G C57A G59U C75A U90G C103G C108U A110C G133U G141C,≤ -4.2
14,A52C C132U,-2.24
15,U33G U56A C69U C87G U101C,≤ -4.2
16,U31A G67U G83A C85A U104G C105U G136A,≤ -4.2
17,A23U C99U,-3.84
18,U7A A22C A28C A60C G92A G143C A147G,≤ -4.2
19,C95U U146G,-1.04
20,A147G,-0.913
21,G46A G59U,0.917
22,C18U G34A G48U C75U G94C G141U,≤ -4.2
23,G34A U78G G86U A106G A115G A120G,≤ -4.2
24,A12G C14A C57A C85G,-3.75

row,Variant,polymerase ribozyme fitness (log ratio)
1,U56G C75G C93U,-4.19
2,C51U U53A A110C C116A,≤ -4.2
3,U90A A107G,≤ -4.2
4,U134A G140A,-3.58
5,A12U A26U G46C C57U C93U C125G U127G A138G,≤ -4.2
6,A29G C95G U127G,≤ -4.2
7,U4G C75G A91U G92A U101G C125U,≤ -4.2
8,C93A C132G A138C G140U G141C,≤ -4.2
9,U55A G94U G117U C131A G136A,≤ -4.2
10,A20U C87G A91U,≤ -4.2
11,G25A C54A G84U C114U A115G A121C U145G A150U,≤ -4.2
12,G84A U127C,-1.91
13,A60C A120U A137C G140U,≤ -4.2
14,A21G C116G U144G,1.13
15,U77A U134G,≤ -4.2
16,G25A C51U G59C G88A U102G G136U,≤ -4.2
17,C36A U82G U135C U145G G152U,-3.98
18,C72U A89U A122U U146A,-0.532
19,U102A A113C,-3.86
20,A47G G62U A142G U146G,-4.12
21,C27A U53A A119C,≤ -4.2
22,A12G C116G G126U,1.17
23,U13C C18G A21U A40C U53G A60U U61A G94U G100A G126A,≤ -4.2
24,C38A U44A A47U G86U C87G G100A A107G C118U,≤ -4.2

row,Variant,polymerase ribozyme fitness (log ratio)
1,A20C A41U G59A A60U C69G G86A C103G,≤ -4.2
2,A23G C54G U56A A142C,≤ -4.2
3,U55G G86U A89G A121C A147U,-3
4,C10A C93U G140C,≤ -4.2
5,A24U G88C C95G C123G,≤ -4.2
6,C43U U53G,≤ -4.2
7,U55A A60C G62A G81A C85U G133C,≤ -4.2
8,A37U G70C C85U G92A,≤ -4.2
9,C38U C95G A120U G152A,-3.59
10,C76A U82G,-1.94
11,A28C U31G G50C A52C G74A G80U G86U A121U,≤ -4.2
12,A12U A17G A23G C35U G83A C87G G136U,≤ -4.2
13,G42A A47C U77G G92U,≤ -4.2
14,A39U A40U C54U G84C C85A G92C G128A,≤ -4.2
15,A24C C32U A39U U90A C95G A138U U144A,≤ -4.2
16,A41C A49C C75U C85A C105A A137U A142C G143U,≤ -4.2
17,U7A A21C U53G U56A G58C A60U C75A,≤ -4.2
18,U82G C93U C131G G140U U146A,≤ -4.2
19,C76U C93U,-2.28
20,U44A C116G,-4.19
21,G92A A98G,-3
22,C96G C114A,-4.19
23,U4C A49U G94A A106G C123U,-1.94
24,U101A,0.177

row,Variant,polymerase ribozyme fitness (log ratio)
1,A41C U101G,-0.344
2,C57U G68U,-3.89
3,C87G A97U G117C,≤ -4.2
4,U31C A52C C54U U139C G143U,≤ -4.2
5,U55G G80A C87U,-0.574
6,A30U U56A G59A G94U C125A U127A U144A,≤ -4.2
7,A26U C87G,≤ -4.2
8,A47U C85A,-2.21
9,A47U C93G,-3.23
10,A23U U44A U55A A122U,≤ -4.2
11,C27U A39U A73G C79U C93A,≤ -4.2
12,U44A G62A G84A U134A,≤ -4.2
13,C54U U151C,-3.65
14,C5U U7G A29C A49G G50C C76A C87U C131A G133A U145G,≤ -4.2
15,C93A C99G,-3.88
16,A21U A39U C43G G50C G92A G141U,≤ -4.2
17,A12G C14U A19G A21U A28G G65C G84C G124U G143C U145C,≤ -4.2
18,G128A,-2.74
19,A29G G50A A52C U101G G133C,≤ -4.2
20,C5U U6G C14U A20C A26U A37C A66U A120G,≤ -4.2
21,C8G A30C C75A G86U C118G,≤ -4.2
22,G94U C125U G143U,-4.16
23,C51U U134C,-0.745
24,A20U C96G,-0.585

row,Variant,polymerase ribozyme fitness (log ratio)
1,C35U U56A C95A C105U G126C,-1.08
2,U56G G58C U61A,-2.98
3,U101G A120G,-0.0391
4,G58A G88C G92A C96A,≤ -4.2
5,A19U U55A A60G G94U G143U,-3.55
6,A22C A41C G50A A115G,-3.63
7,C27U C87U A142U,-3.03
8,U4G A20G C35U G94C A97G C118A A137G A142U,-4.11
9,A20U A113C G133C,≤ -4.2
10,G11U G50U G68A G84U C114U A115U G136A,≤ -4.2
11,G58C C72U A98G,0.461
12,G83A C125A,-0.344
13,A28U G67A G74A G86C C108A C132A,≤ -4.2
14,C27A U44A C85A A107C U148C,≤ -4.2
15,G58C C95U A150C,-3.72
16,A40U G152U,-3.71
17,C54U G84A G92U U144A,-1.38
18,A3C G141U,0.471
19,G59A C99G,-1.14
20,G86U C123A,-1.99
21,U109G U139C A142U,-3.41
22,A20G G25C G58C A106U,-3.93
23,C38U G70A,-2.9
24,C105A G140U,-4.11

row,Variant,polymerase ribozyme fitness (log ratio)
1,C57A C79U C93U A98U A147U,-3.03
2,A40U G140U,-3.81
3,A37G C54U,-2.05
4,C85G U102C G141U,-3.43
5,U82A C93G G126U,-2.84
6,A47G G68A C72U G81A A89G U148A,≤ -4.2
7,A49C C54A U78C C85U,-3.91
8,C79U G86A C96U C149G,≤ -4.2
9,A20U U45A G124A,-3.98
10,U4G C85U,-0.873
11,C57U C131U,1.26
12,A115G G124C C132G A137U,≤ -4.2
13,G83A U135C,-2.09
14,A60U C85G,-3.14
15,A24U A97G U151C,≤ -4.2
16,A41C U127G G136U G141U,≤ -4.2
17,A49C G84U A107G U111G A120G,≤ -4.2
18,G59U C69U G86A C95G A107U,≤ -4.2
19,G34U A37G G50U A89C G92A A138U,≤ -4.2
20,U4G A37U G81A C99A A106C U127G,≤ -4.2
21,C76U A121U,0.67
22,C32A C51G C72U C85G A97C U101G,≤ -4.2
23,C57A C85A A107G,≤ -4.2
